Results on eight substances are retold here after PMC9881148.

In data set [1] the test system is histone H1 (Homo sapiens). Nature of the data set: FCS. As to conditions: poly(ADP-ribose), 50 mM Tris pH 7.4, 150 mM NaCl, 3 mM DTT, 0.05% Tween20, 1 h room temperature, 10 nM nucleic acid.
Data set [2] addresses p53WT (Homo sapiens) (UniProt P04637). Nature of the data set: FCS. As to conditions: poly(ADP-ribose), 50 mM Tris pH 7.4, 150 mM NaCl, 3 mM DTT, 0.05% Tween20, 1 h room temperature, 10 nM nucleic acid.

p53WT (Homo sapiens), sequence (P04637 whole entry): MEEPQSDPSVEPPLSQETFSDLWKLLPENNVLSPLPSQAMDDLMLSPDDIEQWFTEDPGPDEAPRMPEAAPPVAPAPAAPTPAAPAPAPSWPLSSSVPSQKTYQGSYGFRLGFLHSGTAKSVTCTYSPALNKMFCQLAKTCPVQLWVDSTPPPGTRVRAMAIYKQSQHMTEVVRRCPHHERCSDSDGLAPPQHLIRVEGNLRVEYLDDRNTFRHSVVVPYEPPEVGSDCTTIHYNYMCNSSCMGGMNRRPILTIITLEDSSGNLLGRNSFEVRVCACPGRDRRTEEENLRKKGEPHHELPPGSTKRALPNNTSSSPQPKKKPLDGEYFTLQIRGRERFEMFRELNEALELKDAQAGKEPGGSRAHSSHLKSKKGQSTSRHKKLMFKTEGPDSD

In the case of PARHB 20-mer, the equilibrium dissociation constant (Kd) (commonly the free concentration of one partner at which half of the binding sites on the other are occupied at equilibrium, for simple one-to-one binding) in data set [1] (hyperbranched) amounted to 8 nM. This lies in the single-digit nanomolar range.
In the case of PARHB 30-mer, the Kd in data set [2] (hyperbranched) stood at 99 nM.
PARHB 40-mer: the Kd in data set [2] (hyperbranched) was 41 nM. Compared with the last substance, the Kd is about 2.4-fold lower.
For PARHB 50-mer, the Kd in data set [2] (hyperbranched) came to 30 nM.
PARWT 20-mer had a Kd in data set [1] (also printed as 4 nM in the comparison with PARHB, linear) of 5 nM.
Substance PARWT 30-mer came in with a dissociation constant Kd in data set [2] (linear) of 28 nM.
In the case of PARWT 40-mer, the Kd in data set [2] (linear) stood at 7 nM.
PARWT 50-mer came in with a Kd in data set [2] (first binding event, no saturation up to 5 uM, linear) of 8 nM.
